To fix the notation:
B1: F1*; the commonest letter at each place (parent)
chain: GAGACCGCAACTGAAAAGTTGTTATCACTTGTCGTAAGACACTTTGGATGGGTTGAAGTTCTGCACGTAGAAGCAAAAGGC

The variants in the series derive from B1. In words: fraction ligated after 30 min (ligated reads / total reads); higher = more ligase activity. The following applies: with F1*sub RNA substrate (template-directed ligation), 42 °C. The procedure, abridged:
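Ribozyme variants were transcribed with T7 from PCR-amplified oligo-pool templates and gel-purified. Ligated and unligated bands, separated on gel, were reverse transcribed with barcoded primers and sequenced on a MiSeq, with core bases filtered at quality ≥20. Fraction ligated per variant was computed as ligated reads divided by total reads.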
For the variant GAGACCGCAACTGAAAAGTTGTTATCACCTATCGTAAGACACTTTGGATGGGTTGAAGTTCTGCACGTAGAAGCAAAAGGC [T29C G31A], the fraction ligated worked out at 0.796.
GAGACCGCAACTGAAAAGTTGTTATCACCTCTCGTAAGACACTTTGGATGGGTTGAAGTTCTGCACGTAGAAGCAAAAGGC [T29C G31C]: the fraction ligated turned out to be 0.804.
Turning to GAGACCGCAACTGAAAAGTTGTTATCACCTTTCGTAAGACACTTTGGATGGGTTGAAGTTCTGCACGTAGAAGCAAAAGGC [T29C G31T], the fraction ligated worked out at 0.755.
In the case of GAGACCGCAACTGAAAAGTTGTTATCACCTGTCGTGAGACACTTTGGATGGGTTGAAGTTCTGCACGTAGAAGCAAAAGGC [T29C A36G], the fraction ligated is 0.841.
On to GAGACCGCAACTGAAAAGTTGTTATCACCTGTCGTTAGACACTTTGGATGGGTTGAAGTTCTGCACGTAGAAGCAAAAGGC [T29C A36T], for which the fraction ligated is 0.834.
Consider GAGACCGCAACTGAAAAGTTGTTATCACCTGTCGTCAGACACTTTGGATGGGTTGAAGTTCTGCACGTAGAAGCAAAAGGC [T29C A36C], for which the fraction ligated came out at 0.821.
Then GAGACCGCAACTGAAAAGTTGTTATCACCGGTCGTAAGACACTTTGGATGGGTTGAAGTTCTGCACGTAGAAGCAAAAGGC [T29C T30G], with 0.805; and GAGACCGCAACTGAAAAGTTGTTATCACCCGTCGTAAGACACTTTGGATGGGTTGAAGTTCTGCACGTAGAAGCAAAAGGC [T29C T30C], with 0.782.
Then GAGACCGCAACTGAAAAGTTGTTATCACCAGTCGTAAGACACTTTGGATGGGTTGAAGTTCTGCACGTAGAAGCAAAAGGC [T29C T30A], with 0.796; and GAGACCGCAACTGAAAAGTTGTTATCACCTGTCGTAAGACACTTTGGATCGGTTGAAGTTCTGCACGTAGAAGCAAAAGGC [T29C G50C], with 0.112.
For GAGACCGCAACTGAAAAGTTGTTATCACCTGTCGTAAGACACTTTGGATTGGTTGAAGTTCTGCACGTAGAAGCAAAAGGC [T29C G50T], the fraction ligated amounted to 0.41.
For the variant GAGACCGCAACTGAAAAGTTGTTATCACCTGTCGTAAGACACTTTGGATAGGTTGAAGTTCTGCACGTAGAAGCAAAAGGC [T29C G50A], the fraction ligated worked out at 0.116.
In the case of GAGACCGCAACTGAAAAGTTGTTATCACCTGTCGTAAGACACTTTGGCTGGGTTGAAGTTCTGCACGTAGAAGCAAAAGGC [T29C A48C], the fraction ligated was 0.745.
On to GAGACCGCAACTGAAAAGTTGTTATCACCTGTCGTAAGACACTTTGGTTGGGTTGAAGTTCTGCACGTAGAAGCAAAAGGC [T29C A48T], for which the fraction ligated was determined as 0.592.
Then GAGACCGCAACTGAAAAGTTGTTATCACCTGTCGTAAGACACTTTGGGTGGGTTGAAGTTCTGCACGTAGAAGCAAAAGGC [T29C A48G], with 0.389; and GAGACCGCAACTGAAAAGTTGTTATCACCTGTCGTAAGACACTTTGGATGGGTTGAAGTTCTGCACGTAGAAGCAAAAGGC [T29C], with 0.824.
For the variant GAGACCGCAACTGAAAAGTTGTTATCACCTGTCGTAAGACACTTTGGATGGGTTAAAGTTCTGCACGTAGAAGCAAAAGGC [T29C G55A], the fraction ligated amounted to 0.815.
Consider GAGACCGCAACTGAAAAGTTGTTATCACCTGTCGTAAGACACTTTGGATGGGTTTAAGTTCTGCACGTAGAAGCAAAAGGC [T29C G55T], for which the fraction ligated amounted to 0.765.
GAGACCGCAACTGAAAAGTTGTTATCACCTGTCGTAAGACACTTTGGATGGGTTCAAGTTCTGCACGTAGAAGCAAAAGGC [T29C G55C]: the fraction ligated turned out to be 0.638.
Take GAGACCGCAACTGAAAAGTTGTTATCACCTGTCGTAAGACACTTTGGATGGGTTGAGGTTCTGCACGTAGAAGCAAAAGGC [T29C A57G]: the fraction ligated came out at 0.855.
Regarding GAGACCGCAACTGAAAAGTTGTTATCACCTGTCGTAAGACACTTTGGATGGGTTGACGTTCTGCACGTAGAAGCAAAAGGC [T29C A57C], the fraction ligated worked out at 0.797.
Take GAGACCGCAACTGAAAAGTTGTTATCACCTGTCGTAAGACACTTTGGATGGGTTGATGTTCTGCACGTAGAAGCAAAAGGC [T29C A57T]: the fraction ligated is 0.774.
For the variant GAGACCGCAACTGAAAAGTTGTTATCACCTGTCGTAATACACTTTGGATGGGTTGAAGTTCTGCACGTAGAAGCAAAAGGC [T29C G38T], the fraction ligated came out at 0.816.
GAGACCGCAACTGAAAAGTTGTTATCACCTGTCGTAACACACTTTGGATGGGTTGAAGTTCTGCACGTAGAAGCAAAAGGC [T29C G38C]: the fraction ligated was found to be 0.828.
The same measure for GAGACCGCAACTGAAAAGTTGTTATCACCTGTCGTAAAACACTTTGGATGGGTTGAAGTTCTGCACGTAGAAGCAAAAGGC [T29C G38A]: 0.803; for GAGACCGCAACTGAAAAGTTGTTATCACCTGTCGTAAGACACTTTGAATGGGTTGAAGTTCTGCACGTAGAAGCAAAAGGC [T29C G47A]: 0.793; for GAGACCGCAACTGAAAAGTTGTTATCACCTGTCGTAAGACACTTTGCATGGGTTGAAGTTCTGCACGTAGAAGCAAAAGGC [T29C G47C]: 0.264.
As to GAGACCGCAACTGAAAAGTTGTTATCACCTGTCGTAAGACACTTTGTATGGGTTGAAGTTCTGCACGTAGAAGCAAAAGGC [T29C G47T], the fraction ligated stood at 0.508.
GAGACCGCAACTGAAAAGTTGTTATCACCTGTCGTAAGACGCTTTGGATGGGTTGAAGTTCTGCACGTAGAAGCAAAAGGC [T29C A41G]: the fraction ligated was 0.766.
As to GAGACCGCAACTGAAAAGTTGTTATCACCTGTCGTAAGACCCTTTGGATGGGTTGAAGTTCTGCACGTAGAAGCAAAAGGC [T29C A41C], the fraction ligated came to 0.768.
As for GAGACCGCAACTGAAAAGTTGTTATCACCTGTCGTAAGACTCTTTGGATGGGTTGAAGTTCTGCACGTAGAAGCAAAAGGC [T29C A41T], the fraction ligated was 0.788.
Turning to GAGACCGCAACTGAAAAGTTGTTATCACCTGTAGTAAGACACTTTGGATGGGTTGAAGTTCTGCACGTAGAAGCAAAAGGC [T29C C33A], the fraction ligated turned out to be 0.824.
In the case of GAGACCGCAACTGAAAAGTTGTTATCACCTGTGGTAAGACACTTTGGATGGGTTGAAGTTCTGCACGTAGAAGCAAAAGGC [T29C C33G], the fraction ligated was 0.827.
Consider GAGACCGCAACTGAAAAGTTGTTATCACCTGTTGTAAGACACTTTGGATGGGTTGAAGTTCTGCACGTAGAAGCAAAAGGC [T29C C33T], for which the fraction ligated amounted to 0.816.

(Values after the supplement of paper PMC6755084.)
